Source: patent US20240043504A1 (published 2024)

B1: mAb10986 (antibody, V domains shown)
VH: EVQLVESGGGLVQPGGSLRLSCAASEFTVSSNYMSWVRQAPGKGLEWVSVIYSGGSTFYADSVKGRFTISRDNSKNTLYLQMNSLRAEDTAVYYCARALPYGDLHFDYWGQGTLVTVSS
VL: QSVLTQPPSVSGAPGQRVTISCTGSSSNIGTGYDVHWYQQLPGTAPKLLIYGNTNRPSGVPDRFSGSKSGTSASLAITGLQAEDEADYYCQSYDSSLSDSYVFGTGTKVTVLG
B2: mAb10989 (antibody, V domains shown)
VH: QVQLVQSGAEVKKPGASVKVSCKASGYIFTGYYMHWVRQAPGQGLEWMGWINPNSGGANYAQKFQGRVTLTRDTSITTVYMELSRLRFDDTAVYYCARGSRYDWNQNNWFDPWGQGTLVTVSS
VL: QSALTQPASVSGSPGQSITISCTGTSSDVGTYNYVSWYQQHPGKAPKLMIFDVSNRPSGVSDRFSGSKSGNTASLTISGLQAEDEADYYCSSFTTSSTVVFGGGTKLTVLG
B3: mAb10969 (antibody, V domains shown)
VH: QVQLVESGGGVVQPGRSLRLSCAASGFTFSSYAMHWVRQAPGKGLEWVAVISYDGSNKYYADSVKGRFTISRDNSKNTLYLQMNSLRAEDTAVYYCARDGRTITMVRGVIDDAFDIWGQGTMVTVSS
VL: not shown
B4: mAb10971 (antibody, V domains shown)
VH: EVQLVESGGGLIQPGGSLRLSCAASGVTVSSNYMSWVRQAPGKGLEWVSVIYSGGSTFYSDSVKGRFSISRDNSKNTLYLQMNSLRAEDTAVYYCARDLYYYGMDVWGQGTTVTVSS
VL: DIQLTQSPSFLSASVGDRVTITCRASQGISTYLAWYQQKPGKAPKLLIYAASTLQSGVPSRFSGSGSGTEFTLTISSLQPEDFATYYCQQLDSYPGLTFGGGTKVEIKR
B5: mAb10964 (antibody, V domains shown)
VH: QVQLQESGPGLVKPSETLSLTCTVSGGSINNYYWIWIRQPPGKGLEWIGYIYHSGSTNYNPSLKSRVTISVDTSKNQFSLKVSSVTAADTAVYYCANMVRGVYEDDYWGQGTLVTVSS
VL: DIQMTQSPSSLSASVGDRVTITCRASQSISNYLNWYQQKPGKAPKLLIFAASSLRSGVPSRFSGSGSGTDFTLTISSLHPEDFATYYCQQNYNTPLTFGPGTKVDIKR
B6: mAb10966 (antibody, V domains shown)
VH: EVQLVESGGGLVQPGGSLRLSCAASGLTVSSNYMSWVRQAPGKGLEWVSVIYSGGSTFYADSVKGRFTISRDNSKNTLYLQMNSLRPEDTAVYYCAREGRIAATGYGMDVWGQGTTVTVSS
VL: not shown
B7: mAb10967 (antibody, V domains shown)
VH: EVQLVESGGGLVQPGGSLRLSCAASGFTVSSNYMSWVRQAPGKGLEWVSVIYPGGSTFYADSVKGRFTISRDNSKNTLYLQMNSLRAEDTAVYYCARDQRDFAWGQGTLVTVSS
VL: DIQMTQSPSSLSASVGDRVTITCQASQDISNYLNWYQQKPGKAPKLLIYDASNLETGVPSRFSGSGSGTDFTFTISGLQPEDIATYYCQQYDNLPPTFGQGTRLEIKR
B8: mAb10954 (antibody, V domains shown)
VH: EVQLVESGGGLVQPGGSLRLSCAASGITVSSNYMSWVRQAPGKGLEWVSLIYSGGSTYYADSVKGRFTISRDNSKNTLYLQMNSLRVEDTAVYYCARDHGMAAAGYNYWGQGTLVTVSS
VL: DIQMTQSPSSLSASVGDRVTITCQASQDINKYLNWYQQKPGKAPKLLIYDASNLETGVPSRFSGSGSGTDFTFTINSLQPEDFATYFCQQYDNLPPAFGQGTKVEIKR
B9: mAb10955 (antibody, V domains shown)
VH: EVQLVESGGGLVQPGGSLRVSCAASGFTVSRNYMSWVRQAPGKGLEWVSVIYSGGSTFYADSVKGRFTISRDNSKNTLYLQMNSLRAEDTAIYYCARYIPRFDPWGQGTLVTVSS
VL: DIQMTQSPSSLSASVGDRVTITCQASQDISNYLNWFQQKPGRAPKLLIYDASNLETGVPSRFSGSGSGTDFTFTISSLQPEDIATYYCQQYDNLPITFGQGTRLEIKR
B10: mAb10956 (antibody, V domains shown)
VH: EVQLVESGGGLVQPGGSLRLSCAASGLTVSSNYMSWVRQAPGKGLEWVSVIYSGGSTFYADSVKGRFTISRDNSKNTLYLQMNSLRAEDTAVYYCARDLIKYGMDVWGQGTTVTVSS
VL: not shown
B11: mAb10957 (antibody, V domains shown)
VH: EVQLVESGGGLVQPGGSLRLSCAASGVTVSSNYMSWVRQAPGKGLEWVSVIYSGGSTFYADSVKGRFTISRDNSKNTLFLQMNSLRIEDTAVYYCARDLGPYGMDVWGQGTTVTVSS
VL: DIQLTQSPSFLSASVGDRVTITCRASQGISSYLAWYQQKPGKAPKLLIYAASTLQSGVPSRFSGSGSGTQFILTISSLQPEDFATYYCQQLNSYPGFTFGPGTKVDIKR
B12: mAb10932 (antibody, V domains shown)
VH: EVQLVESGGGLVQSGGSLRLSCAASGLTVSSNYMSWVRQAPGKGLEWVSVIYSGGSTFYSDSVKGRFTISRHNSKNTLYLQMNSLRAEDTAVYYCARARGDAFDIWGQGTMVTVSS
VL: not shown
B13: mAb10934 (antibody, V domains shown)
VH: not shown
VL: DIQMTQSPSSLSASVGDRVTITCQASQDIWNYINWYQQKPGKAPKLLIYDASNLKTGVPSRFSGSGSGTDFTFTISSLQPEDIATYYCQQHDDLPPTFGQGTKVEIKR
B14: mAb10935 (antibody, V domains shown)
VH: EVQLVESGGGLVQPGGSLRLSCAASGFTVSSNYMSWVRQAPGKGLEWVSLIYSGGSTYYADSVKGRFTISRHNSKNTLYLQMNSLRSEDTAVYYCARVPLGDYYYGMDVWGQGTTVTVSS
VL: DIQMTQSPSSLSASVGDRVTITCQASQDINKYLNWYQQKPGKAPKLLIYDASNLETGVPSRFSGSGSGTDFTFTISSLQPEDIATYYCQQSDNLPLTFGGGTKVEIKR
B15: mAb10936 (antibody, V domains shown)
VH: QVQLVESGGGVVQPGRSLRLSCAASGFTFRNYGMHWVRQAPGKGLEWVSVIWYDGSNRYYADSVKGRFTISRDTSKNTLYLQMNSLRAEDTAVYYCARDPPITGTTGGDAFDIWGQGTMVTVSS
VL: not shown
B16: mAb10937 (antibody, V domains shown)
VH: QITLKESGPTLVKPTQTLTLTCTFSGFSLSTNVVGVGWIRQPPGKALEWLALIYWNDDKRYSPSLKSRLTITKDTSKNQVVLTMTNMDPVDTATYYCAHGPTGDYFDYWGQGTLVTVSS
VL: not shown
B17: mAb10920 (antibody, V domains shown)
VH: QVQLVESGGGVVQPGRSLRLSCAASGFTFSYYGMHWVRQAPGKGLEWVAVIWYDGSNKFYADSVKGRFTISRDNSKNTLYLQMNSLRAEDTAVYYCAAARPGYYYGMDVWGQGTTVTVSS
VL: DIQMTQSPSSLSASVGDRVTITCRASQGISNYLAWFQQKPGKAPNSLIYAASSLQRGVPSKFSGSGSGTDFTLTISSLQPEDFATYYCQQYNSYPRTFGQGTKVEIKR
B18: mAb10921 (antibody, V domains shown)
VH: EVQLVESGGGLVQPGGSLRLSCAASGITVSSNYMSWVRQAPGKGLEWVSVIYSGGSTFYADSVKGRFTISRHNSKNTLYLQMNSLRAEDTAVYYCARERNFDAFDIWGQGTMVTVSS
VL: DIQMTQSPSSVSASVGDRVTITCRASQGISSWLAWYQQKPGKAPKLLIYAASSLQSGVPSRFSGSGSGTDFTLTISSLQPEDFATYYCQQANSFPLFTFGPGTKVDIKR
B19: mAb10923 (antibody, V domains shown)
VH: QVQLVQSGAEVKKPGASVKVSCKASGYTFINYYIHWVRQAPGQGLEWMGWINPNSGGTNYAQKFQGRVTMTRDTSISTAYMELSRLRSDDTAVYYCAIITIFGVVTWFDPWGQGTLVTVSS
VL: not shown
B20: mAb10930 (antibody, V domains shown)
VH: EVQLVESGGGLVQPGRSLRLSCAASGFTFDDYAMYWVRQAPGKGLEWVSGISWNSGSIGYADSVKGRFTISRDNAKNSLYLQMNSLRAADTALYYCAKDKDWNSRGYYYYGMDVWGQGTTVTVSS
VL: not shown
B21: mAb10938 (antibody, V domains shown)
VH: EVQLVESGGGLVQPGGSLRLSCAVSGFTVSSNYMSWVRQAPGKGLEWVSLIYSGGSTFYADSVKGRFTISRHNSKNTLYLQMNSLRAEDTAVYYCAREGGYSYDYNYWGQGTLVTVSS
VL: DIQMTQSPSSLSASVGDRVTITCQASQDIRNYLNWYQQKPGKAPKLLIYDASNLETGVPSRFSGIGSGTDFTFTISSLQPEDIATYYCQQYDNLPITFGQGTRLEIKR
B22: mAb10939 (antibody, V domains shown)
VH: EVQLVESGGGLVQPGGSLRLSCAASGLTVSSNYMNWVRQVPGKGLEWVSVIYSGGSKFYVDSVKGRFTISRHNSKNTLYLQMNSLRPEDTAVYYCTRDAQYYGMDVWGQGTTVTVSS
VL: DIQMTQSPSSLSASVGDRVTITCRASQSISTYLHWYQQKPGEAPKLLIYAASSLQSGVPSRFSGSGSGTDFTLTISSLQPEDFATYYCQQSYSTPPEIFGQGTKLEIKR
B23: mAb10982 (antibody, V domains shown)
VH: EVQLVESGGGLVQPGGSLRLSCAASGLTVSSNYMSWVRQAPGKGLEWVSVIYSGGTTYYADSVKGRFTISRHNSKNTLSLQMNSLRAEDTAVYYCARGEGANYYGMDVWGQGTTVTVSS
VL: QSVLTQPPSVSGAPGQRVTISCTGSSSNIGTGYDVHWYQQLPGTAPKLLIYGNSNRPSGVPDRFSGSKSGTSASLAITGLQAEDEADYYCQSYDSSLSGYVVFGGGTKLTVLG
B24: mAb10984 (antibody, V domains shown)
VH: EVQLVESGGGLVQPGGSLRLSCAASGLTVNRNYMSWVRQAPGKGLEWVSLIYSGGSTYYADSVKGRFTISRDNSKNTLYLQMNSLRLEDTAVYYCARGELGIPYGMDVWGQGTTVTVSS
VL: QSVLTQPPSVSAAPGQKVTISCSGSSSNIGNNYVSWYQQLPGTAPKLLIYDNNKRPSGIPDRFSGSKSGTSATLGITGLQTGDEADYYCGTWDSSLSAGVFGGGTKLTVLG

What follows are binders tested against SARS-CoV-2 RBD extracellular domain expressed with a C-terminal mouse IgG2a (SARS-COV-2 RBD-mFc) (SARS-CoV-2) (assay: not given).

Q: B1 was tested. Which Kd did it give?
A: ≤ 0.0158 nM

Q: And the t1/2?
A: ≥ 19.2 h

Q: Which t1/2 does the source give for B2 here?
A: 2.07 h

Q: Which Kd does the source give for B3 here?
A: 0.0496 nM

Q: And the t1/2?
A: 12.7 h

Q: Which Kd does the source give for B4 here?
A: ≤ 0.0253 nM

Q: And the koff?
A: ≤ 1e-05 s⁻¹

Q: And the kon?
A: 395000 M⁻¹ s⁻¹

Q: What about the t1/2 of the same binder?
A: ≥ 19.2 h

Q: How did the Kd turn out when B5 was run?
A: ≤ 0.007 nM

Q: And the t1/2?
A: ≥ 19.2 h

Q: For B6, which Kd is on record?
A: ≤ 0.0249 nM

Q: And the t1/2?
A: ≥ 19.2 h

Q: With B7 as the binder, how does the Kd read?
A: ≤ 0.0251 nM

Q: What about the t1/2 of the same binder?
A: ≥ 19.2 h

Q: How did the Kd turn out when B8 was run?
A: ≤ 0.0173 nM

Q: And the t1/2?
A: ≥ 19.2 h

Q: Which results are given for B9?
A: Kd: 0.0592 nM; t1/2: 8.23 h

Q: B10 was tested. Which Kd did it give?
A: 0.395 nM

Q: And the t1/2?
A: 1.3 h

Q: With B11 as the binder, how does the Kd read?
A: ≤ 0.0279 nM

Q: What about the t1/2 of the same binder?
A: ≥ 19.2 h

These binders were tested against SARS-COV-2 RBD-mFc (SARS-CoV-2) (assay: Luminex beads).

Q: Does B12 bind?
A: binds

Q: Does B13 bind?
A: binds

Q: Does B14 bind?
A: binds

Q: Does B15 bind?
A: binds

Q: Does B16 bind?
A: binds

Q: Does B17 bind?
A: binds

Q: Does B18 bind?
A: binds

Q: Does B19 bind?
A: binds

Q: Does B20 bind?
A: binds

Q: Does B21 bind?
A: binds

Q: Does B22 bind?
A: binds

Q: Does B23 bind?
A: binds

Q: Does B24 bind?
A: binds
